Results reported in patent publication US11149086B2, “KV1.3 binding immunoglobulins” (Ablynx N.V., priority 2014, dated 2021).

Experiments:
[1] = test system: cyno Kv1.3; test: 125I-margatoxin competition on cyno Kv1.3 expressing CHO cells; type: binding, cynomolgus; conditions: 150 pM I125 margatoxin
Procedure: Periplasmic extracts were screened in a radioligand 125I-margatoxin competition assay to assess the blocking capacity of the expressed Nanobodies. Cynomolgous Kv1.3 was presented on CHO cells overexpressing Kv1.3.
In order to detect binding of margatoxin to cell expressed Kv1.3, a radiolabeled toxin was used (125I-margatoxin; MgTX; Perkin Elmer, NEX083). To setup the assay, first a titration series of the radiolabeled 125I-margatoxin was performed on the CHO-cyKv1.3 and parental CHO K1 cells. To have maximum sensitivity of the screening, the EC30 concentration (150 pM) was chosen for competition during screening and later on, also characterization.
In brief, 35 μl of periplasmic extract was added to 150 pM labeled margatoxin (50 μl) and 40000 CHO-cyKv1.3 cells that were seeded the day before in a poly-D-lysine coated 96-well plate (BD Biocoat, Cat354620) in a total of 200 μl. After two hours incubation at RT, cells were washed two times before read out was performed with 100 μl/well MicroScint-20 (Perkin Elmer) on a TopCount device (Perkin Elmer).
As reference compounds, a dilution series of ShK-1aJ (Smartox, #08SHK001) and unlabeled margatoxin (Alamone labs, Cat RTM-325) were included. […] For each sample the percentage block was determined using the control samples to determine the assay window. […]

[2] = molecular target: T1, human Kv1.3 (Homo sapiens, UniProt P22001); test: FACS competition with FAM-labeled ShK on HEK293H human Kv1.3 cells; type: binding
T1 construct: cell lines stably expressing the full length human Kv1.3 channel
T1 sequence (P22001 whole entry): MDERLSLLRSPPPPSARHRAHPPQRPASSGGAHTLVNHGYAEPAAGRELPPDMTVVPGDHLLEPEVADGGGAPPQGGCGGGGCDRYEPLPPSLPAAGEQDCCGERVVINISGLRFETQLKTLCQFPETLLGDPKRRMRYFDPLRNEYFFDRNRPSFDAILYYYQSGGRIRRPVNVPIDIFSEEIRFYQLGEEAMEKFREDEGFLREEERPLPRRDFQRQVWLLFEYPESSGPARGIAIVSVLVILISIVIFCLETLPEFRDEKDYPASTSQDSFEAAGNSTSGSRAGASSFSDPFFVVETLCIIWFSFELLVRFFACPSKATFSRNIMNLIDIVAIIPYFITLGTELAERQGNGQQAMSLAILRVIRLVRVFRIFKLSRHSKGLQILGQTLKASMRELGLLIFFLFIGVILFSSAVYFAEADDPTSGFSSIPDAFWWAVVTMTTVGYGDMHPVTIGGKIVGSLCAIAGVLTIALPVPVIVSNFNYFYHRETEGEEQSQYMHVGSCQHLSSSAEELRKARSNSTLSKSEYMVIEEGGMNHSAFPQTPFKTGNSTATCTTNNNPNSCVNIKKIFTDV
Procedure: To evaluate the competition between the toxin ShK and the Nanobodies for binding to Kv1.3, a FACS competition experiment was performed using HEK293H cells overexpressing human Kv1.3 and the parental HEK293H cells as background cell line. As detection reagent, FAM-labeled ShK was used (6-FAM-AEEAc-Stichodactyla helianthus Neurotoxin (ShK) (Bachem, H-6088, 1046522, PRT00000366/01/01)). To setup the assay, first a titration series of the labeled Shk-FAM was performed on the HEK293H Kv1.3 cells in order to determine the EC50 value for binding.
In brief, a dilution series of ShK or Nanobody were added together with the labeled toxin to 200 000 cells in a 96-well plate. After 90 minutes incubation at 4° C., cells were washed three times before read out was performed on a FACS Canto (Becton Dickinson). First a gate was set on the intact cells as determined from the scatter profile. Next, dead cells were gated out by their fluorescence profile from the TOPRO stain (5 nM, Molecular probes, T3605). […] The percentage of inhibition for Nanobodies blocking the interaction of ShK to human Kv1.3 is depicted in Table B-11.

Chain of cyno Kv1.3 (as listed by the source): as the sequence (P22001 whole entry) above, with R4H, P23A, H38P, R47P, T269P, E275D, S284A, R285A, S497A counted along it

B1: A019400003: monovalent anti-Kv1.3 Nanobody, family 1 (protein)
VHH: EVQLVESGGGLVQAGGSLSLSCTASGGTFRNFGMGWFRQAQGKEREFVAAISRTGGHTYYQDSVKGRFTISKDNAKNILSLQMNSLKPEDTAVYYCAARFRFGDGTYYYQRAFYDFWGQGTQVTVSS
modifications: Nanobody sequence
block of I125 margatoxin binding, in words [1]: completely block | blocking of FAM labeled ShK binding to Kv1.3, in words ([2]; 70 nM ShK-FAM): only partially blocked | % inhibition of ShK-Fam binding ([2]; 70 nM ShK-Fam (100x EC50), HEK 293H hu Kv1.3 cells): 87.13%
